A word on the Kd: it is a measure of binding affinity in units of concentration. A lower Kd goes with a tighter complex.

Data on seven molecules can be found in patent US20180155451A1 (published 2018).

Experiment [1] deals with T1, FcγRIIIa extracellular domain with C-terminal His tag (human, UniProt P08637 17-208).
T1 construct: extracellular domain; also called FcgRIIIa; 3a; not shown: His tag at the C terminus
As to the kind of experiment: SPR relative binding; GpH7-A5/GpH7-B3/GpL16-k0 = 100. The source says:
First, variants of interest were expressed and prepared according to the method described in Reference Example 1, using GpH7-A5 as an H chain; and GpL16-k0 as the L chain; and as the other H chain, GpH7-HA5 (SEQ ID NO: 19), GpH7-HA6 (SEQ ID NO: 20), and GpH7-HA11 (SEQ ID NO: 21) resulting from the introduction of L234Y, G236W, and S298A, respectively, into GpH7-B12 introduced with the alteration P329R. Furthermore, antibodies of interest were expressed and prepared according to the method described in Reference Example 1, using as an H chain, GpH7-A48 (SEQ ID NO: 16) resulting from the introduction of P329R into GpH7-A5; and GpL16-k0 as the L chain; and as the other H chain, GpH7-B3-01-15Y (SEQ ID NO: 22), GpH7-B3-03-20W (SEQ ID NO: 23), and GpH7-B3-15-02A (SEQ ID NO: 24) resulting from the introduction of L234Y, G236W, and S298A, respectively, into GpH7-B3. The antibodies thus obtained were named GpH7-A5/GpH7-HA5/GpL16-k0 (SEQ ID NOs: 3, 19, and 5, respectively), GpH7-A5/GpH7-HA6/GpL16-k0 (SEQ ID NOs: 3, 20, and 5, respectively), GpH7-A5/GpH7-HA11/GpL16-k0 (SEQ ID NOs: 3, 21, and 5, respectively), GpH7-A48/GpH7-B3-01-15Y/GpL16-k0 (SEQ ID NOs: 16, 22, and 5, respectively), GpH7-A48/GpH7-B3-03-20W/GpL16-k0 (SEQ ID NOs: 16, 23, and 5, respectively), and GpH7-A48/GpH7-B3-15-02A/GpL16-k0 (SEQ ID NO: 16, 24, and 5, respectively). The variants were compared to each other for the FcγRIIIa-binding activity according to the method described in Reference Example 2.
(§1) Analysis of interaction between objective antibody and the FcγR was carried out using Biacore T100 (GE Healthcare). HBS-EP+ (GE Healthcare) was used as the running buffer, and the measurement temperature was set to 25° C. Chips produced by immobilizing the antigen peptide by the amine coupling method to a Series S Sencor Chip CM5 (GE Healthcare), or alternatively, chips produced by allowing preliminarily biotinylated antigen peptides to interact with and immobilize onto a Series S Sensor Chip SA (certified) (GE Healthcare) were used. Antibodies of interest were captured onto an antigen peptide-immobilized chip, and allowed to interact to each FcγR diluted with running buffer. To regenerate and repeatedly use the chip, the antibodies captured on the chip were washed off by reacting 10 mM glycine-HCl, pH 1.5.

Experiment [2] deals with T2, FcγRIa extracellular domain with C-terminal His tag (human, UniProt P12314 16-292).
T2 construct: extracellular domain; also called FcgRIa; FcgRI
T2 sequence (P12314 16-292): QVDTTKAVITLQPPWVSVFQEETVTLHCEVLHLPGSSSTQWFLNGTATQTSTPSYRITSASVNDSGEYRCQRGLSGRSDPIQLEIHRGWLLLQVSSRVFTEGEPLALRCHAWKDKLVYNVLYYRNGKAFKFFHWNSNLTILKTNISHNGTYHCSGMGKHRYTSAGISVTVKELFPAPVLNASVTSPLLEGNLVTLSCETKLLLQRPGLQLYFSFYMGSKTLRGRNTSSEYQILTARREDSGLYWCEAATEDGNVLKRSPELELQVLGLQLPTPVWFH
The experiment in a line: SPR (Biacore T100), ratio of KD values. As to the method:
(§2) These antibodies were assessed for the binding activity to each FcγR according to the method described in Reference Example 2.
as §1
(§3) The FcγR-binding activity of each antibody was assessed primarily using as an indicator the FcγR-binding activity and dissociation constant for FcγR.
On the technique in general: SPR reads the build-up and loss of mass on a sensor chip optically.

For experiment [3], the target named is T3, FcγRIIa type H extracellular domain with C-terminal His tag (human, UniProt P12318 34-217).
T3 construct: extracellular domain; also called FcgRIIa H; FcγRIIa H
T3 sequence (looked up): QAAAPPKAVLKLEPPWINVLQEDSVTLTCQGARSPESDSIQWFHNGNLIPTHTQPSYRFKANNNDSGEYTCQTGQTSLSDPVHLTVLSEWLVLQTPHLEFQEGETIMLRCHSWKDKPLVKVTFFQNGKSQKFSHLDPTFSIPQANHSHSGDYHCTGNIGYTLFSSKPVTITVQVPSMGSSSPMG
The experiment in a line: SPR (Biacore T100), ratio of KD values. The protocol: as §2, §1, §3

Experiment [4] deals with T4, FcγRIIa type R extracellular domain with C-terminal His tag (human, UniProt P12318 34-217).
T4 construct: extracellular domain; also called FcgRIIa R; FcγRIIa R
T4 sequence (looked up): T3 sequence (looked up) with H134R
As to the kind of experiment: SPR (Biacore T100), ratio of KD values. As to the method:
as §2, §1, §3

Experiment [5] concerns the target T5, FcγRIIb extracellular domain with C-terminal His tag (human, UniProt P31994 43-217).
T5 construct: extracellular domain; also called FcgRIIb
T5 sequence (looked up): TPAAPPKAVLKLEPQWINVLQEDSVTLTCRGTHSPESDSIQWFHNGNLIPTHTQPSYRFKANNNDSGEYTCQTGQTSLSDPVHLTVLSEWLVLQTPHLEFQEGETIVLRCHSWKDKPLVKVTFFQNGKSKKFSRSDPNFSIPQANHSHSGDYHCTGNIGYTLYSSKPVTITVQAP
The experiment in a line: SPR (Biacore T100), ratio of KD values. As to the method: as §2, §1, §3

Experiment [6] addresses T6, FcγRIIIa type F extracellular domain with C-terminal His tag (human, UniProt P08637 17-208).
T6 construct: extracellular domain; also called FcgRIIIa F; FcγRIIIa F
The experiment in a line: SPR (Biacore T100), ratio of KD values. The protocol: as §2, §1, §3

The target of experiment [7] is T7, FcγRIIIa type V extracellular domain with C-terminal His tag (human, UniProt P08637 17-208).
T7 construct: extracellular domain; also called FcgRIIIa V; FcγRIIIa V
T7 sequence (P08637 17-208 F176V): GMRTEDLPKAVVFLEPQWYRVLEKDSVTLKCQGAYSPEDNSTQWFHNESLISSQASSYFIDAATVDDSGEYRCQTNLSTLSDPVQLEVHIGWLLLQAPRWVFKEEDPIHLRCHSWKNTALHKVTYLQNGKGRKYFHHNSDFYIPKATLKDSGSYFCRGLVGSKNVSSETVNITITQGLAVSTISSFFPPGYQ
The experiment in a line: SPR (Biacore T100), ratio of KD values. As to the method:
as §2, §1, §3

The target in experiment [8] is T2, FcγRIa extracellular domain with …. As to the kind of experiment: SPR (Biacore T100), antibody captured on antigen-peptide chip, FcγR analyte, 1:1 Langmuir fit. The protocol: as §2, §1, §3
In experiment [9] the target is T3, FcγRIIa type H extracellular domain …. The description is as above. The protocol:
as §2, §1, §3

The target in experiment [10] is T4, FcγRIIa type R extracellular domain …. The experiment is described as above. As to the method:
as §2, §1, §3

In experiment [11] the target is T5, FcγRIIb extracellular domain with …. Described as above. As to the method:
as §2, §1, §3

Experiment [12] deals with T6, FcγRIIIa type F extracellular domain …. Described as above. The protocol:
as §2, §1, §3

For experiment [13], the target named is T7, FcγRIIIa type V extracellular domain …. Described as above. As to the method:
as §2, §1, §3

Positions count from the first letter of the chain named. In names and notes the source's numbering stands.

T1 sequence (P08637 17-208): as the sequence (P08637 17-208 F176V) above, with V160F counted along it
T6 sequence (P08637 17-208): as the sequence (P08637 17-208 F176V) above, with V160F counted along it

B1: GpH7-A5/GpH7-HA11/GpL16-k0 (antibody, human IgG1, kappa)
heavy 1: not shown
heavy 2: QVQLVQSGAEVKKPGASVTVSCKASGYTFTDYEMHWIRQPPGEGLEWIGAIDPKTGDTAYSESFQDRVTLTADKSTSTAYMELSSLTSEDTAVYYCTRFYSYTYWGQGTLVTVSSASTKGPSVFPLAPSSKSTSGGTAALGCLVKDYFPEPVTVSWNSGALTSGVHTFPAVLQSSGLYSLSSVVTVPSSSLGTQTYICNVNHKPSNTKVDKKVEPKSCDKTHTCPPCPAPELLGGPSVFLFPPKPKDTLMISRTPEVTCVVVDVSHEDPEVKFNWYVDGVEVHNAKTKPREEQYNATYRVVSVLTVLHQDWLNGKEYKCKVSNKALRAPIEKTISKAKGQPREPQVYTLPPSRDELTKNQVSLTCLVKGFYPSDIAVEWESNGQPENNYKTTPPVLDSDGSFFLYSKLTVDKSRWQQGNVFSCSVMHEALHNHYTQESLSLSP
light: DIVMTQSPLSLPVTPGEPASISCQASESLVHSNRNTYLHWYLQKPGQSPQLLIYKVSNRFSGVPDRFSGSGSGTDFTLKISRVEAEDVGVYYCSQNTHVPPTFGQGTKVEIERTVAAPSVFIFPPSDEQLKSGTASVVCLLNNFYPREAKVQWKVDNALQSGNSQESVTEQDSKDSTYSLSSTLTLSKADYEKHKVYACEVTHQGLSSPVTKSFNRGEC
notes: H2 S298A and P329R
As to B1, the “FcγRIIIa BINDING ACTIVITY” value in experiment [1] is 84 % of control.

B2: GpH7-Kn033/GpH7-Hl033/GpL16-k0 (antibody, human IgG1, kappa)
heavy 1: not shown
heavy 2: not shown
light: B1 light
notes: Anti-glypican-3 IgG1 with knobs-into-holes alone; also called Kn033/Hl033
For B2, the KD ratio in [2], in experiment [3], in experiment [4], in [5], in experiment [6] and in [7] was 1 fold (KD of GpH7-Kn033/GpH7-Hl033/GpL16-k0 divided by KD of this antibody) each time. Further, the Kd in experiment [8] stood at 0.069 nM; in experiment [9], 590 nM; in experiment [10] it was 740 nM; in experiment [11] it was 3600 nM; in [12], 1600 nM; in experiment [13], 220 nM.

B3: GpH7-Kn032/GpH7-Hl032/GpL16-k0 (antibody, human IgG1, kappa)
heavy 1: B1 heavy 2 with S237D, A296S, R327P, A328L, I330E, Y347C, T364W, E437K
heavy 2: B1 heavy 2 with S237D, A296S, R327P, A328L, I330E, D354C, T364S, L366A, Y405V, E437K
light: B1 light
notes: also called Kn032/Hl032
Regarding B3, the KD ratio in [2] was 24 fold (KD of GpH7-Kn033/GpH7-Hl033/GpL16-k0 divided by KD of this antibody); in experiment [3], 1.2 fold (KD of GpH7-Kn033/GpH7-Hl033/GpL16-k0 divided by KD of this antibody); in [4], 3 fold (KD of GpH7-Kn033/GpH7-Hl033/GpL16-k0 divided by KD of this antibody); in [5], 8.2 fold (KD of GpH7-Kn033/GpH7-Hl033/GpL16-k0 divided by KD of this antibody); in [6], 381 fold (KD of GpH7-Kn033/GpH7-Hl033/GpL16-k0 divided by KD of this antibody); in experiment [7], 182 fold (KD of GpH7-Kn033/GpH7-Hl033/GpL16-k0 divided by KD of this antibody). The Kd in experiment [8] was determined as 0.0028 nM; in [9], 470 nM; in experiment [10] it was 250 nM; in experiment [11], 440 nM; in [12], 4.1 nM; in experiment [13] it was 1.2 nM.

B4: GpH7-A48/GpH7-B3-15-02A/GpL16-k0 (antibody, human IgG1, kappa)
heavy 1: B1 heavy 2 with A296S, D354K, H433R, E437K
heavy 2: not shown
light: B1 light
notes: H1 P329R; H2 S298A
In the case of B4, in [1], the “FcγRIIIa BINDING ACTIVITY” value was 47 % of control.

B5: GpH7-A48/GpH7-B3-01-15Y/GpL16-k0 (antibody, human IgG1, kappa)
heavy 1: B1 heavy 2 with A296S, D354K, H433R, E437K
heavy 2: not shown
light: B1 light
notes: H1 P329R; H2 L234Y
With B5, the “FcγRIIIa BINDING ACTIVITY” value in [1] is 11 % of control.

B6: GpH7-Kn037/GpH7-Hl036/GpL16-k0 (antibody, human IgG1, kappa)
heavy 1: B1 heavy 2 with G234A, S237D, A296S, R327P, I330E, Y347C, T364W, E437K
heavy 2: B1 heavy 2 with G234A, S237D, A296S, R327P, I330E, D354C, T364S, L366A, Y405V, E437K
light: B1 light
notes: also called Kn037/Hl036
B6: the KD ratio in experiment [2] was 6 fold (KD of GpH7-Kn033/GpH7-Hl033/GpL16-k0 divided by KD of this antibody); in [3], 22 fold (KD of GpH7-Kn033/GpH7-Hl033/GpL16-k0 divided by KD of this antibody); in experiment [4] it was 43 fold (KD of GpH7-Kn033/GpH7-Hl033/GpL16-k0 divided by KD of this antibody); in [5], 16 fold (KD of GpH7-Kn033/GpH7-Hl033/GpL16-k0 divided by KD of this antibody); in experiment [6] it was 161 fold (KD of GpH7-Kn033/GpH7-Hl033/GpL16-k0 divided by KD of this antibody); in experiment [7] it was 84 fold (KD of GpH7-Kn033/GpH7-Hl033/GpL16-k0 divided by KD of this antibody). Moreover, the Kd in experiment [8] came to 0.012 nM; in [9], 27 nM; in [10], 17 nM; in experiment [11] it was 230 nM; in experiment [12] it was 9.7 nM; in experiment [13], 2.6 nM.

B7: GpH7-A48/GpH7-B3-03-20W/GpL16-k0 (antibody, human IgG1, kappa)
heavy 1: B1 heavy 2 with A296S, D354K, H433R, E437K
heavy 2: not shown
light: B1 light
notes: H1 P329R; H2 G236W
Turning to B7, the “FcγRIIIa BINDING ACTIVITY” value in experiment [1] was 13 % of control.
